# Patent US11883434B2, “Extracellular vesicles and methods of using” (NUtech Ventures, priority 2017, dated 2024)
# Like-named read-outs stand apart in the source and are kept apart here.
# B1: Arg-C: Cysteine protease cleaving at arginine and lysine (protein, UniProt P09870 51-181; P09870 191-526, looked up)
# Clostripain light chain: NKNQKVTIMYYCDADNNLEGSLLNDIEEMKTGYKDSPNLNLIALVDRSPRYSSDEKVLGEDFSDTRLYKIEHNKANRLDGKNEFPEISTTSKYEANMGDPEVLKKFIDYCKSNYEADKYVLIMANHGGGAR
# Clostripain heavy chain: AICWDDSNLDKNGEADCLYMGEISDHLTEKQSVDLLAFDACLMGTAEVAYQYRPGNGGFSADTLVASSPVVWGPGFKYDKIFDRIKAGGGTNNEDDLTLGGKEQNFDPATITNEQLGALFVEEQRDSTHANGRYDQHLSFYDLKKAESVKRAIDNLAVNLSNENKKSEIEKLRGSGIHTDLMHYFDEYSEGEWVEYPYFDVYDLCEKINKSENFSSKTKDLASNAMNKLNEMIVYSFGDPSNNFKEGKNGLSIFLPNGDKKYSTYYTSTKIPHWTMQSWYNSIDTVKYGLNPYGKLSWCKDGQDPEINKVGNWFELLDSWFDKTNDVTGGVNHYQW
# B2: trypsin: Serine protease cleaving at lysine or arginine; applied to exosomes or cells (protein, UniProt P00761 9-231, looked up)
# Trypsin: IVGGYTCAANSIPYQVSLNSGSHFCGGSLINSQWVVSAAHCYKSRIQVRLGEHNIDVLEGNEQFINAAKIITHPNFNGNTLDNDIMLIKLSSPATLNSRVATVSLPRSCAAAGTECLISGWGNTKSSGSSYPSLLQCLKAPVLSDSSCKSSYPGQITGNMICVGFLEGGKDSCQGDSGGPVVCNGQLQGIVSWGYGCAQKNKPGVYTKVCNYVNWIQQTIAAN
# B3: proteinase K: Non-specific protease used to remove surface proteins from exosomes or cells (protein, UniProt P06873 106-384, looked up)
# Proteinase K: AAQTNAPWGLARISSTSPGTSTYYYDESAGQGSCVYVIDTGIEASHPEFEGRAQMVKTYYYSSRDGNGHGTHCAGTVGSRTYGVAKKTQLFGVKVLDDNGSGQYSTIIAGMDFVASDKNNRNCPKGVVASLSLGGGYSSSVNSAAARLQSSGVMVAVAAGNNNADARNYSPASEPSVCTVGASDRYDRRSSFSNYGSVLDIFGPGTSILSTWIGGSTRSISGTSMATPHVAGLAAYLMTLGKTTAASACRYIADTANKGDLSNIPFGTVNLLAYNNYQA
# B4: PNA: Lectin binding Galβ1-3GalNAcα1-Ser/Thr (protein, UniProt P02872 24-273, looked up)
# Galactose-binding lectin: AETVSFNFNSFSEGNPAINFQGDVTVLSNGNIQLTNLNKVNSVGRVLYAMPVRIWSSATGNVASFLTSFSFEMKDIKDYDPADGIIFFIAPEDTQIPAGSIGGGTLGVSDTKGAGHFVGVEFDTYSNSEYNDPPTDHVGIDVNSVDSVKTVPWNSVSGAVVKVTVIYDSSTKTLSVAVTNDNGDITTIAQVVDLKAKLPERVKFGFSASGSLGGRQIHLIRSWSFTSTLITTTRRSIDNNEKKIMNMASA
# How the values were obtained:
# Format in all cases: cell-based
# [1] = system: human colon carcinoma Caco-2 cells; design: exosome uptake: dose or concentration left out as unconfirmed
# Method: (§1) Caco-2 cells and IEC-6 cells were seeded at a density of 20,000 and 7000 cells/well, respectively, in 96-well plates, and allowed to adhere for 48 h, when cells were 75% confluent. The exosomes were labeled with the fluorophore, FM 4-64 (Molecular Probes). One microliter of a stock solution of FM 4-64 (5.9 mmol/L) was added to 1 mL of exosome suspension and incubated for 15 min at 37° C., and excess FM 4-64 was removed by ultracentrifugation at 120,000 3 g at 4° C. for 90 min. Transport studies were conducted using FM4-64-labeled exosomes using 3-110 mg of exosomal protein/well (Caco-2 cells) or 27-652 mg of exosomal protein/well (IEC-6 cells) and incubating cells for various periods of time to assess saturation kinetics; blanks were created using solvent. Assays were calibrated by quantifying the fluorescence of a known mass of exosomes labeled with FM 4-64. Exosome uptake was analyzed by measuring the cell fluorescence at 515 (excitation) and 640 nm (emission) using a Biotek FLx800 plate reader (BioTek Instru-ments). Fluorescence readings were corrected for cell autofluorescence by subtracting signals measured in cells incubated with exosome-depleted media. Transport kinetics was modeled using the Michaelis-Menten equation and nonlinear regression; modeling was conducted using GraphPad Prism 6.0 (GraphPad Software). In Caco-2 cells, exosome uptake was linear for up to 120 min if transport was measured using nonsaturating substrate concentrations (FIG. 33A): y=0.0012x+0.014 (r2=0.97; P<0.05). In IEC-6 cells exosome uptake was linear for only up to 60 min if transport was measured using nonsaturating substrate concentrations (FIG. 33B): y=0.0033x+0.033 (r2=0.75; P<0.05). Subsequent transport studies were conducted using incubation times of 8 hours for Caco-2 cells (FIG. 34B). Transport of milk exosome uptake was also studied in human umbilical vein endothelial cells (HUVECs) human small intestinal cells (FHs cells).
# In both mammalian cells, the uptake of bovine milk exosomes was mediated by saturable transport mechanisms. Transport kinetics was modeled using the Michaelis-Menten equation. Exosome uptake was analyzed by measuring the cell fluorescence at 515 (excitation) and 640 nm (emission) using a Biotek FLx800 plate reader (BioTek Instruments) as previously described above. […] When the incubation temperature was decreased from 37° C. to 4° C., the transport rate decreased from 100%+56% to 54%+13% using a substrate concentration of 55.5 μg exosomal protein/200 μL in Caco-2 cells (P<0.05; n=3). Likewise, when the incubation temperature was decreased from 37° C. to 4° C., the transport rate decreased from 100%+11% to 44%+25% using a substrate concentration of 153 μg exosomal protein/200 μL in IEC-6 cells (P<0.05; n=3). Subsequent transport studies were conducted using substrate concentrations of 55 μg/200 mL and 153 μg/200 mL in Caco-2 cells and IEC-6 cells, respectively. […] (N=3; p<0.05). […] FIGS. 37A and 37B show saturation kinetics of milk exosome uptake in human small intestinal cells (FHs cells).
# To remove surface protein from milk exosomes, the exosomes were subjected to various proteases, including trypsin, proteinase K, AspN, GluC, ArgC. […] Following protease treatment, the exosomes were subject to ultracentrifugation. The supernatant containing the enzyme cleaved surface peptides were identified using LC-MS/MS using LC/MS-MS and Mascot, and glycoproteins were identified using SwissProt. One way Anova and Bonferroni's Multiple comparison was used to test for statistical significance. The pellet containing the exosomes with its surface proteins removed was resuspended in 1×PBS and used for the transport studies shown in FIGS. 40-43.
# The uptake of bovine milk exosomes into human and rat intestinal cells depended on surface proteins in both exosomes and cells. Exosomes were treated with proteases as described above and depicted in FIG. 39. […]
# [2] = system: rat primary small intestinal IEC-6 cells; assay: Uptake of FM4-64-labeled milk exosomes into IEC-6 cells; conditions: exosomes treated with 0.105 mMol/L trypsin for 30 mins
# Method: as §1, with “Transport studies were conducted using FM4-64-labeled exosomes using 3-110 mg of exosomal protein/well (Caco-2 cells) or 27-652 mg of exosomal protein/well (IEC-6 cells) and incubating cells for various periods of time to assess saturation kinetics; blanks were created using solvent.” left out, “Transport kinetics was modeled using the Michaelis-Menten equation and nonlinear regression; modeling was conducted using GraphPad Prism 6.0 (GraphPad Software).” left out, “Subsequent transport studies were conducted using incubation times of 8 hours for Caco-2 cells (FIG. 34B). Transport of milk exosome uptake was also studied in human umbilical vein endothelial cells (HUVECs) human small intestinal cells (FHs cells).” left out
# [3] = system: human umbilical vein endothelial cells (HUVEC); assay: Uptake of fluorophore-labeled milk exosomes into HUVECs; conditions: exosomal surface proteins removed with proteinase K, HUVEC
# [4] = system: human small intestinal cells (FHs cells); assay: Uptake of milk exosomes into FH cells (protease, glycosidase, lectin, sonication)
molecule,measurement,setting,value
B1,effect on exosome uptake in Caco-2 cells,[1],significant decrease in exosome transport
B2,effect on exosome uptake in Caco-2 cells,[1],significant decrease in exosome transport
same,transport rates (Vmax),"[1]; exosomes treated with the labelled protease, intestinal transport",40±0.6 arbitrary units
same,exosome uptake,[2],82%±8%
B3,exosome uptake,[3],50 % of controls
same,exosome uptake,[1]; CaCo2 cells treated with proteinase K,18%±16%
same,exosome uptake,[1]; exosomes treated with proteinase K,32%±25%
same,decrease of exosome uptake compared with controls,"[1]; removal of exosome and cell surface proteins, inhibition of endocytosis/vesicle trafficking, or of glycoprotein binding",61-85%
B4,effect on exosome uptake in FH cells,[4]; FH cells treated with the labelled agent,decreases the uptake
same,effect on exosome uptake in FH cells,[4]; exosomes treated with the labelled agent,decreases the uptake
